The chains are these.
B1: EEHEE_rd4_0469 (parent)
chain: ITIHVNGVTYHFDNPEEAEKFAQKMAKTYQLKMEIHNGEFHME

In this data set the parent is B1. The data set is described as follows: folding stability dG (cDNA display proteolysis); higher = more stable. The settings on record: PBS, room temperature.
As for ITIHVNGVTYHFDDPEEAEKFAQKMAKTYQLKMEIHNGEFHME [N14D], the “folding stability dG” value is 1.19 kcal/mol.
As to ITIHVNGVTYHFDFPEEAEKFAQKMAKTYQLKMEIHNGEFHME [N14F], the “folding stability dG” value turned out to be 1.05 kcal/mol.
Under ITIHVNGVTYHFDAPEEAEKFAQKMAKTYQLKMEIHNGEFHME [N14A] stands 0.947 kcal/mol; under ITIHVNGVTYHFDEPEEAEKFAQKMAKTYQLKMEIHNGEFHME [N14E], 0.901 kcal/mol.
ITIHVNGVTYHTDNPEEAEKFAQKMAKTYQLKMEIHNGEFHME [F12T]: the “folding stability dG” value was -0.211 kcal/mol.
With ITIHVNGVTYHVDNPEEAEKFAQKMAKTYQLKMEIHNGEFHME [F12V] the figure was 0.034 kcal/mol; with ITIHVNGVTYHKDNPEEAEKFAQKMAKTYQLKMEIHNGEFHME [F12K], -0.93 kcal/mol.
For ITIHVNGVTYHLDNPEEAEKFAQKMAKTYQLKMEIHNGEFHME [F12L], the “folding stability dG” value is 0.299 kcal/mol.
With ITIHVNGVTYHHDNPEEAEKFAQKMAKTYQLKMEIHNGEFHME [F12H] the figure was -0.29 kcal/mol.
As for ITIHVNGVTYHWDNPEEAEKFAQKMAKTYQLKMEIHNGEFHME [F12W], the “folding stability dG” value was 0.481 kcal/mol.
With ITIHVNGVTYHADNPEEAEKFAQKMAKTYQLKMEIHNGEFHME [F12A] the figure was -0.214 kcal/mol.
With ITIHVNGVTYHPDNPEEAEKFAQKMAKTYQLKMEIHNGEFHME [F12P] the figure was -0.616 kcal/mol.
Under ITIHVNGVTYHNDNPEEAEKFAQKMAKTYQLKMEIHNGEFHME [F12N] stands -0.578 kcal/mol; under ITIHVNGVTYHQDNPEEAEKFAQKMAKTYQLKMEIHNGEFHME [F12Q], -0.822 kcal/mol.
As to ITIHVNGVTYHSDNPEEAEKFAQKMAKTYQLKMEIHNGEFHME [F12S], the “folding stability dG” value was -0.408 kcal/mol.
Under ITIHVNGVTYHIDNPEEAEKFAQKMAKTYQLKMEIHNGEFHME [F12I] stands 0.352 kcal/mol.
Under ITIHVNGVTYHMDNPEEAEKFAQKMAKTYQLKMEIHNGEFHME [F12M] stands 0.391 kcal/mol; under ITIHVNGVTYHGDNPEEAEKFAQKMAKTYQLKMEIHNGEFHME [F12G], -0.935 kcal/mol.
In the case of ITIHVNGVTYHYDNPEEAEKFAQKMAKTYQLKMEIHNGEFHME [F12Y], the “folding stability dG” value turned out to be 0.526 kcal/mol.
Under ITIHVNGVTYHCDNPEEAEKFAQKMAKTYQLKMEIHNGEFHME [F12C] stands 1.07 kcal/mol; under ITIHVNGVTYWFDNPEEAEKFAQKMAKTYQLKMEIHNGEFHME [H11W], 1.24 kcal/mol.
For ITIHVNGVTYNFDNPEEAEKFAQKMAKTYQLKMEIHNGEFHME [H11N], the “folding stability dG” value is 0.977 kcal/mol.
With ITIHVNGVTYFFDNPEEAEKFAQKMAKTYQLKMEIHNGEFHME [H11F] the figure was 1.17 kcal/mol; with ITIHVNGVTYQFDNPEEAEKFAQKMAKTYQLKMEIHNGEFHME [H11Q], 1.01 kcal/mol.
With ITIHVNGVTYRFDNPEEAEKFAQKMAKTYQLKMEIHNGEFHME [H11R] the figure was 1.13 kcal/mol; with ITIHVNGVTYPFDNPEEAEKFAQKMAKTYQLKMEIHNGEFHME [H11P], 0.279 kcal/mol; with ITIHVNGVTYDFDNPEEAEKFAQKMAKTYQLKMEIHNGEFHME [H11D], 0.692 kcal/mol.
With ITIHVNGVTYKFDNPEEAEKFAQKMAKTYQLKMEIHNGEFHME [H11K] the figure was 1.12 kcal/mol; with ITIHVNGVTYAFDNPEEAEKFAQKMAKTYQLKMEIHNGEFHME [H11A], 1.02 kcal/mol; with ITIHVNGVTYSFDNPEEAEKFAQKMAKTYQLKMEIHNGEFHME [H11S], 1.05 kcal/mol.
For the variant ITIHVNGVTYLFDNPEEAEKFAQKMAKTYQLKMEIHNGEFHME [H11L], the “folding stability dG” value is 1.02 kcal/mol.
With ITIHVNGVTYTFDNPEEAEKFAQKMAKTYQLKMEIHNGEFHME [H11T] the figure was 1.07 kcal/mol; with ITIHVNGVTYYFDNPEEAEKFAQKMAKTYQLKMEIHNGEFHME [H11Y], 1.18 kcal/mol; with ITIHVNGVTYVFDNPEEAEKFAQKMAKTYQLKMEIHNGEFHME [H11V], 1.07 kcal/mol.
ITIHVNGVTYMFDNPEEAEKFAQKMAKTYQLKMEIHNGEFHME [H11M]: the “folding stability dG” value was 1.03 kcal/mol.
With ITIHVNGVTYGFDNPEEAEKFAQKMAKTYQLKMEIHNGEFHME [H11G] the figure was 0.636 kcal/mol; with ITIHVNGVTYEFDNPEEAEKFAQKMAKTYQLKMEIHNGEFHME [H11E], 0.843 kcal/mol.
Under ITIHVNGVTYIFDNPEEAEKFAQKMAKTYQLKMEIHNGEFHME [H11I] stands 1.04 kcal/mol.
With ITIHVNGVTVHFDNPEEAEKFAQKMAKTYQLKMEIHNGEFHME [Y10V] the figure was 0.557 kcal/mol; with ITIHVNGVTWHFDNPEEAEKFAQKMAKTYQLKMEIHNGEFHME [Y10W], 1.07 kcal/mol.
In the case of ITIHVNGVTYHFFNPEEAEKFAQKMAKTYQLKMEIHNGEFHME [D13F], the “folding stability dG” value is 1.15 kcal/mol.
Under ITIHVNGVTYHFWNPEEAEKFAQKMAKTYQLKMEIHNGEFHME [D13W] stands 1.23 kcal/mol.
Under ITIHVNGVTYHFVNPEEAEKFAQKMAKTYQLKMEIHNGEFHME [D13V] stands 1.21 kcal/mol; under ITIHVNGVTYHFINPEEAEKFAQKMAKTYQLKMEIHNGEFHME [D13I], 1.3 kcal/mol.
Under ITIHVNGVTYHFPNPEEAEKFAQKMAKTYQLKMEIHNGEFHME [D13P] stands 1.17 kcal/mol.
In the case of ITIHVNGVTYHFHNPEEAEKFAQKMAKTYQLKMEIHNGEFHME [D13H], the “folding stability dG” value was 1.2 kcal/mol.
Under ITIHVNGVTYHFCNPEEAEKFAQKMAKTYQLKMEIHNGEFHME [D13C] stands 1.81 kcal/mol; under ITIHVNGVTYHFQNPEEAEKFAQKMAKTYQLKMEIHNGEFHME [D13Q], 1.11 kcal/mol.
Under ITIHVNGVTYHFTNPEEAEKFAQKMAKTYQLKMEIHNGEFHME [D13T] stands 1.25 kcal/mol.
Under ITIHVNGVTYHFRNPEEAEKFAQKMAKTYQLKMEIHNGEFHME [D13R] stands 1.15 kcal/mol; under ITIHVNGVTYHFMNPEEAEKFAQKMAKTYQLKMEIHNGEFHME [D13M], 1.16 kcal/mol; under ITIHVNGVTYHFYNPEEAEKFAQKMAKTYQLKMEIHNGEFHME [D13Y], 1.23 kcal/mol.
Turning to ITIHVNGVTYHFNNPEEAEKFAQKMAKTYQLKMEIHNGEFHME [D13N], the “folding stability dG” value worked out at 1.13 kcal/mol.
With ITIHVNGVTYHFENPEEAEKFAQKMAKTYQLKMEIHNGEFHME [D13E], the “folding stability dG” value is 1.11 kcal/mol.
With ITIHVNGVTYHFANPEEAEKFAQKMAKTYQLKMEIHNGEFHME [D13A] the figure was 1.2 kcal/mol; with ITIHVNGVTYHFGNPEEAEKFAQKMAKTYQLKMEIHNGEFHME [D13G], 1.11 kcal/mol.
Under ITIHVNGVTYHFKNPEEAEKFAQKMAKTYQLKMEIHNGEFHME [D13K] stands 1.1 kcal/mol; under ITIHVNGVTYHFSNPEEAEKFAQKMAKTYQLKMEIHNGEFHME [D13S], 1.26 kcal/mol.
With ITIHVNGVTYHFLNPEEAEKFAQKMAKTYQLKMEIHNGEFHME [D13L] the figure was 1.28 kcal/mol.

Values taken from the MegaScale stability set (Tsuboyama et al. 2023).
